Reference: PMC2912147 (Neuron, 2008)

Biological target: Flag-tagged full length HDAC1 (UniProt Q13547 1-482)
Assay: co-IP

Sequence of Flag-tagged full length HDAC1 (Q13547 whole entry): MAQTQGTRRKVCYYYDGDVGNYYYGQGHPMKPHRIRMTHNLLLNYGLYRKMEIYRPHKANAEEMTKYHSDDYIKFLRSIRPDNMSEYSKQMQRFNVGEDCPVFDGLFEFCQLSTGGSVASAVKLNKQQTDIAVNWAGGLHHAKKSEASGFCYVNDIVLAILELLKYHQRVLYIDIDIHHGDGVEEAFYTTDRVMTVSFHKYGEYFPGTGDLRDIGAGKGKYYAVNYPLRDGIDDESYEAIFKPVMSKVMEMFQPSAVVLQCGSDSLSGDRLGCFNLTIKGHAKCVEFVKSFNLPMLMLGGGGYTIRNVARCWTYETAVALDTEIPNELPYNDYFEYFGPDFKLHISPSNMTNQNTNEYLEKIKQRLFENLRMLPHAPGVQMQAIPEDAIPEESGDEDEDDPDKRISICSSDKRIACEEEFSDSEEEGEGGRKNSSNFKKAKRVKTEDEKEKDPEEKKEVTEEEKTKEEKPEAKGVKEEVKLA

fold interaction against p35: > 12 fold
B1: GFP-p25 (full length p25, overexpressed in HEK293T cells) (domain or fragment)
chain: not shown
